Here are results for 125 sequences from the supplement of paper PMC9112550, “Optimization of the antimicrobial peptide Bac7 by deep mutational scanning” (BMC Biology, 2022).

This series concerns Escherichia coli TOP10. Briefly: shrunken log2 fold change of peptide-encoding DNA abundance (4.5 h post-induction vs induction); higher = less antimicrobial activity (less host growth inhibition). The settings on record: time post-induction: 4.5 h; library: site-saturation at positions 5, 18, 19, 20.
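Also: peptides expressed intracellularly from a pBAD plasmid library in pooled LB shake-flask culture, induced with 0.3% L-arabinose, DNA abundance read by NGS, three biological replicates, DESeq2 with apeglm shrinkage.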

As for RRIRLRPPRLPRPRPRPFYMPRP, the “shrunken log2 fold change” value is -0.0545.

For RRIRDRPPRLPRPRPRPMRFPRP, the “shrunken log2 fold change” value amounted to 0.21.

As to RRIRMRPPRLPRPRPRPRGQPRP, the “shrunken log2 fold change” value worked out at 1.25.

With RRIRSRPPRLPRPRPRPHWQPRP, the “shrunken log2 fold change” value is -0.0893.

For the sequence RRIRCRPPRLPRPRPRPPNEPRP, the “shrunken log2 fold change” value was 0.309.

For the sequence RRIRYRPPRLPRPRPRPHYRPRP, the “shrunken log2 fold change” value was -0.433.

Take RRIRERPPRLPRPRPRPIVTPRP: the “shrunken log2 fold change” value is -0.158.

For the sequence RRIRHRPPRLPRPRPRPCNHPRP, the “shrunken log2 fold change” value is -0.292.

In the case of RRIRVRPPRLPRPRPRPKIIPRP, the “shrunken log2 fold change” value was -0.645.

With RRIRYRPPRLPRPRPRPWYCPRP, the “shrunken log2 fold change” value was -1.12.

For the sequence RRIRVRPPRLPRPRPRPYQSPRP, the “shrunken log2 fold change” value is -0.0308.

With RRIRVRPPRLPRPRPRPPCFPRP, the “shrunken log2 fold change” value was determined as 0.17.

Regarding RRIRKRPPRLPRPRPRPPHCPRP, the “shrunken log2 fold change” value amounted to 1.19.

As for RRIRNRPPRLPRPRPRPLYLPRP, the “shrunken log2 fold change” value is -0.54.

With RRIRPRPPRLPRPRPRPAMGPRP, the “shrunken log2 fold change” value is 0.332.

Consider RRIRQRPPRLPRPRPRPWLWPRP, for which the “shrunken log2 fold change” value came to 0.145.

With RRIRLRPPRLPRPRPRPGVFPRP, the “shrunken log2 fold change” value was -0.0879.

Regarding RRIRMRPPRLPRPRPRPQNKPRP, the “shrunken log2 fold change” value is -0.176.

For RRIRHRPPRLPRPRPRPKFFPRP, the “shrunken log2 fold change” value was -0.0649.

Turning to RRIRWRPPRLPRPRPRPWYEPRP, the “shrunken log2 fold change” value stood at 0.0012.

Consider RRIRFRPPRLPRPRPRPDFSPRP, for which the “shrunken log2 fold change” value is -0.259.

Turning to RRIRCRPPRLPRPRPRPSDYPRP, the “shrunken log2 fold change” value was -1.15.

With RRIRNRPPRLPRPRPRPWNGPRP, the “shrunken log2 fold change” value is -0.368.

In the case of RRIRSRPPRLPRPRPRPKVCPRP, the “shrunken log2 fold change” value turned out to be 0.00182.

For RRIRFRPPRLPRPRPRPLESPRP, the “shrunken log2 fold change” value is -0.00313.

RRIRSRPPRLPRPRPRPMCQPRP: the “shrunken log2 fold change” value was -0.0136.

For RRIRMRPPRLPRPRPRPQPKPRP, the “shrunken log2 fold change” value amounted to 1.77.

On to RRIRARPPRLPRPRPRPMNSPRP, for which the “shrunken log2 fold change” value is -0.279.

With RRIRWRPPRLPRPRPRPGIAPRP, the “shrunken log2 fold change” value stood at 0.411.

Turning to RRIRFRPPRLPRPRPRPVTGPRP, the “shrunken log2 fold change” value stood at 0.0131.

With RRIRVRPPRLPRPRPRPDVNPRP, the “shrunken log2 fold change” value was -0.172.

With RRIRRRPPRLPRPRPRPLYQPRP, the “shrunken log2 fold change” value was -0.315.

RRIRDRPPRLPRPRPRPTMCPRP: the “shrunken log2 fold change” value was -0.107.

As for RRIRYRPPRLPRPRPRPQNHPRP, the “shrunken log2 fold change” value is -0.61.

With RRIRRRPPRLPRPRPRPYCWPRP, the “shrunken log2 fold change” value is -0.474.

Consider RRIRQRPPRLPRPRPRPHQCPRP, for which the “shrunken log2 fold change” value is -0.401.

Consider RRIRERPPRLPRPRPRPIQYPRP, for which the “shrunken log2 fold change” value was -0.163.

In the case of RRIRSRPPRLPRPRPRPCSRPRP, the “shrunken log2 fold change” value is -0.179.

RRIRHRPPRLPRPRPRPVEVPRP: the “shrunken log2 fold change” value was 0.0201.

For the sequence RRIRTRPPRLPRPRPRPCIHPRP, the “shrunken log2 fold change” value is -0.11.

Regarding RRIRDRPPRLPRPRPRPCQMPRP, the “shrunken log2 fold change” value is -0.00455.

As for RRIRVRPPRLPRPRPRPLFWPRP, the “shrunken log2 fold change” value is 0.139.

As for RRIRDRPPRLPRPRPRPMLPPRP, the “shrunken log2 fold change” value came out at 0.16.

As to RRIRMRPPRLPRPRPRPAWFPRP, the “shrunken log2 fold change” value is 0.634.

In the case of RRIRIRPPRLPRPRPRPCTRPRP, the “shrunken log2 fold change” value was determined as 0.0316.

As for RRIRDRPPRLPRPRPRPLVKPRP, the “shrunken log2 fold change” value worked out at 0.0947.

In the case of RRIRTRPPRLPRPRPRPATNPRP, the “shrunken log2 fold change” value was -0.0241.

As for RRIRIRPPRLPRPRPRPRPYPRP, the “shrunken log2 fold change” value was -0.332.

As for RRIRKRPPRLPRPRPRPIEWPRP, the “shrunken log2 fold change” value stood at 0.404.

For the sequence RRIRVRPPRLPRPRPRPHCMPRP, the “shrunken log2 fold change” value was -0.414.

For RRIRDRPPRLPRPRPRPGECPRP, the “shrunken log2 fold change” value is -0.0602.

As to RRIRLRPPRLPRPRPRPPGFPRP, the “shrunken log2 fold change” value amounted to 0.278.

With RRIRSRPPRLPRPRPRPQMLPRP, the “shrunken log2 fold change” value was -0.195.

Turning to RRIRTRPPRLPRPRPRPVNYPRP, the “shrunken log2 fold change” value came out at 0.0177.

On to RRIRERPPRLPRPRPRPKMWPRP, for which the “shrunken log2 fold change” value was -0.0633.

Turning to RRIRWRPPRLPRPRPRPWMDPRP, the “shrunken log2 fold change” value was -0.0803.

For the sequence RRIRNRPPRLPRPRPRPEFAPRP, the “shrunken log2 fold change” value stood at 0.175.

With RRIRKRPPRLPRPRPRPGTTPRP, the “shrunken log2 fold change” value was 0.157.

On to RRIRIRPPRLPRPRPRPDKTPRP, for which the “shrunken log2 fold change” value was -0.0467.

Consider RRIRWRPPRLPRPRPRPHKGPRP, for which the “shrunken log2 fold change” value was -0.185.

In the case of RRIRWRPPRLPRPRPRPQWWPRP, the “shrunken log2 fold change” value stood at 0.00856.

For RRIRVRPPRLPRPRPRPNVRPRP, the “shrunken log2 fold change” value was -0.0431.

As for RRIRRRPPRLPRPRPRPPMHPRP, the “shrunken log2 fold change” value was determined as 0.693.

With RRIRGRPPRLPRPRPRPHKNPRP, the “shrunken log2 fold change” value is 0.535.

In the case of RRIRFRPPRLPRPRPRPGQTPRP, the “shrunken log2 fold change” value is 0.0249.

For RRIRERPPRLPRPRPRPKFNPRP, the “shrunken log2 fold change” value is -0.558.

For the sequence RRIRQRPPRLPRPRPRPHIEPRP, the “shrunken log2 fold change” value was -0.58.

In the case of RRIRFRPPRLPRPRPRPDKGPRP, the “shrunken log2 fold change” value is -0.0555.

For RRIRERPPRLPRPRPRPQHGPRP, the “shrunken log2 fold change” value is -0.102.

For RRIRNRPPRLPRPRPRPWFTPRP, the “shrunken log2 fold change” value is -0.786.

As to RRIRDRPPRLPRPRPRPYIWPRP, the “shrunken log2 fold change” value was -0.373.

Consider RRIRPRPPRLPRPRPRPKCAPRP, for which the “shrunken log2 fold change” value is 0.0543.

On to RRIRARPPRLPRPRPRPVCPPRP, for which the “shrunken log2 fold change” value came out at 0.139.

RRIRTRPPRLPRPRPRPPCCPRP: the “shrunken log2 fold change” value was determined as 0.00432.

RRIRTRPPRLPRPRPRPGPIPRP: the “shrunken log2 fold change” value stood at 0.316.

Regarding RRIRGRPPRLPRPRPRPAEHPRP, the “shrunken log2 fold change” value was 0.352.

Regarding RRIRARPPRLPRPRPRPACWPRP, the “shrunken log2 fold change” value turned out to be 0.849.

In the case of RRIRYRPPRLPRPRPRPQTEPRP, the “shrunken log2 fold change” value is 0.0019.

As for RRIRMRPPRLPRPRPRPKLWPRP, the “shrunken log2 fold change” value is 1.41.

As for RRIRHRPPRLPRPRPRPLIYPRP, the “shrunken log2 fold change” value is -0.569.

For RRIRCRPPRLPRPRPRPVHTPRP, the “shrunken log2 fold change” value worked out at 0.101.

As for RRIRWRPPRLPRPRPRPISKPRP, the “shrunken log2 fold change” value is -0.215.

As for RRIRKRPPRLPRPRPRPYSRPRP, the “shrunken log2 fold change” value is -0.0735.

Consider RRIRIRPPRLPRPRPRPTCMPRP, for which the “shrunken log2 fold change” value is -0.059.

On to RRIRKRPPRLPRPRPRPINEPRP, for which the “shrunken log2 fold change” value is -0.215.

Take RRIRLRPPRLPRPRPRPPCYPRP: the “shrunken log2 fold change” value was determined as 0.00883.

Regarding RRIRQRPPRLPRPRPRPNWTPRP, the “shrunken log2 fold change” value is -0.00963.

On to RRIRRRPPRLPRPRPRPINWPRP, for which the “shrunken log2 fold change” value was -0.0685.

For the sequence RRIRTRPPRLPRPRPRPRKFPRP, the “shrunken log2 fold change” value was found to be 0.0711.

For the sequence RRIRPRPPRLPRPRPRPMHLPRP, the “shrunken log2 fold change” value is -0.034.

As to RRIRNRPPRLPRPRPRPDDPPRP, the “shrunken log2 fold change” value is -0.0062.

Take RRIRFRPPRLPRPRPRPKKIPRP: the “shrunken log2 fold change” value is -0.028.

For RRIRERPPRLPRPRPRPNDFPRP, the “shrunken log2 fold change” value is -0.0161.

Take RRIRMRPPRLPRPRPRPDIQPRP: the “shrunken log2 fold change” value was found to be 0.118.

As for RRIRWRPPRLPRPRPRPHWSPRP, the “shrunken log2 fold change” value was -0.182.

With RRIRNRPPRLPRPRPRPQKMPRP, the “shrunken log2 fold change” value was -0.134.

For RRIRFRPPRLPRPRPRPQTCPRP, the “shrunken log2 fold change” value was -0.31.

On to RRIRFRPPRLPRPRPRPYKFPRP, for which the “shrunken log2 fold change” value was -0.228.

Consider RRIRDRPPRLPRPRPRPCRKPRP, for which the “shrunken log2 fold change” value was -0.00804.

Take RRIRNRPPRLPRPRPRPRRRPRP: the “shrunken log2 fold change” value worked out at 0.558.

Turning to RRIRRRPPRLPRPRPRPWFCPRP, the “shrunken log2 fold change” value was -0.101.

With RRIRCRPPRLPRPRPRPCSHPRP, the “shrunken log2 fold change” value is -1.29.

On to RRIRPRPPRLPRPRPRPTKKPRP, for which the “shrunken log2 fold change” value turned out to be 0.0418.

Consider RRIRPRPPRLPRPRPRPDTWPRP, for which the “shrunken log2 fold change” value is 0.0185.

On to RRIRARPPRLPRPRPRPQERPRP, for which the “shrunken log2 fold change” value came out at 0.0703.

Consider RRIRYRPPRLPRPRPRPMHLPRP, for which the “shrunken log2 fold change” value is -0.00136.

With RRIRSRPPRLPRPRPRPLCTPRP, the “shrunken log2 fold change” value is 0.0479.

For the sequence RRIRYRPPRLPRPRPRPDDGPRP, the “shrunken log2 fold change” value worked out at 0.0672.

Turning to RRIRSRPPRLPRPRPRPKINPRP, the “shrunken log2 fold change” value was -0.424.

On to RRIRSRPPRLPRPRPRPHDYPRP, for which the “shrunken log2 fold change” value is 0.0635.

With RRIRWRPPRLPRPRPRPYGWPRP, the “shrunken log2 fold change” value is -0.0271.

As to RRIRPRPPRLPRPRPRPCYDPRP, the “shrunken log2 fold change” value is -0.165.

Regarding RRIRNRPPRLPRPRPRPTRHPRP, the “shrunken log2 fold change” value was 0.162.

For the sequence RRIRERPPRLPRPRPRPYLVPRP, the “shrunken log2 fold change” value was -0.529.

As to RRIRERPPRLPRPRPRPTWAPRP, the “shrunken log2 fold change” value was 0.115.

For RRIRDRPPRLPRPRPRPCCKPRP, the “shrunken log2 fold change” value is 0.0846.

In the case of RRIRARPPRLPRPRPRPYLNPRP, the “shrunken log2 fold change” value was -0.914.

As to RRIRVRPPRLPRPRPRPLLLPRP, the “shrunken log2 fold change” value is -0.52.

Take RRIRSRPPRLPRPRPRPKNHPRP: the “shrunken log2 fold change” value is -0.215.

In the case of RRIRQRPPRLPRPRPRPGNCPRP, the “shrunken log2 fold change” value was -0.0905.

Consider RRIRHRPPRLPRPRPRPHPAPRP, for which the “shrunken log2 fold change” value stood at 0.21.

Regarding RRIRKRPPRLPRPRPRPNSIPRP, the “shrunken log2 fold change” value is -0.0805.

For the sequence RRIRRRPPRLPRPRPRPTPNPRP, the “shrunken log2 fold change” value was found to be 0.945.

Take RRIRTRPPRLPRPRPRPLYIPRP: the “shrunken log2 fold change” value was -0.998.

As to RRIRPRPPRLPRPRPRPMCSPRP, the “shrunken log2 fold change” value is -0.152.
